# B1: BIWA 4 (antibody, human IgG1, kappa, V domains shown)
# VH: EVQLVESGGGLVKPGGSLRLSCAASGFTFSSYDMSWVRQAPGKGLEWVSTISSGGSYTYYLDSIKGRFTISRDNAKNSLYLQMNSLRAEDTAVYYCARQGLDYWGRGTLVTVSS
# VL: EIVLTQSPATLSLSPGERATLSCSASSSINYIYWYQQKPGQAPRLLIYLTSNLASGVPARFSGSGSGTDFTLTISSLEPEDFAVYYCLQWSSNPLTFGGGTKVEIKR
# Target: CD44v6 on antigen-positive FaDu cells (human head and neck cancer cell line) (human) (UniProt P16070)
# Experiment: flow cytometry (FACS) on FaDu cells, FITC-labeled anti-human IgG detection, on ice
binder,measurement,value
B1,Kd,1 nM

# Reference: US20030103985A1
